Source: patent US20230035037A1 (published 2023)

Legend:
[1] = molecular target: T1, LRPAP1 (signal peptide), I-variant at position 9 peptide on HLA-A*02:01 (human); assay: titration of short peptide on HLA-A*0201 positive T2 cells or EBV-JY cells; cytokine secretion by the LRPAP1-specific T cell clone (FIG. 1d, 1e); T cell clone or line
T1 peptide: FLGPWPAAI

[2] = molecular target: T2, LRPAP1 (signal peptide), L-variant at position 9 peptide on HLA-A*02:01 (human); assay: as above
T2 peptide: FLGPWPAAL

[3] = molecular target: T3, LRPAP1 (signal peptide), V-variant: C-terminal serine replaced by valine peptide on HLA-A*02:01 (human); assay: as above
T3 peptide: FLGPWPAAV

[4] = molecular target: T4, LRPAP1 (signal peptide) peptide on HLA-A*02:01 (human); assay: as above
T4 peptide: FLGPWPAAS

[5] = molecular target: … (SEQ ID NO: 1) presented by HLA-A*0201 on peptide-pulsed cells (human); assay: cell-based or functional assay
[6] = molecular target: … (SEQ ID NO: 18) presented by HLA-A*0201 on peptide-pulsed cells (human); assay: cell-based or functional assay
[7] = molecular target: … (SEQ ID NO: 2) presented by HLA-A*0201 on cells (human); assay: cell-based or functional assay
[8] = molecular target: … (SEQ ID NO: 16) presented by HLA-A*0201 on peptide-pulsed cells (human); assay: cell-based or functional assay

- EC50 of peptide [1]: 0.7 µg/mL
- EC50 of peptide [2]: 3.7 µg/mL
- EC50 of peptide [3]: 0.1 µg/mL
- EC50 of peptide [4]: 1.9 µg/mL
- EC50 of the T cell response to peptide-pulsed HLA-A*0201 positive cells (functional T cell avidity) [5]: 0.1 µg/mL
- T cell activation, V-peptide against S-peptide [5]: 19 fold
- EC50 of the T cell response to peptide-pulsed HLA-A*0201 positive cells (functional T cell avidity) [6]: 3.7 µg/mL
- EC50 of the T cell response to peptide-pulsed HLA-A*0201 positive cells (functional T cell avidity) [7]: 1.9 µg/mL
- EC50 of the T cell response to peptide-pulsed HLA-A*0201 positive cells (functional T cell avidity) [8]: 0.7 µg/mL
B1: TCR of the LRPAP1-specific T cell clone 1A8 (TCR, V domains shown)
Valpha: RKEVEQDPGPFNVPEGATVAFNCTYSNSASQSFFWYRQDCRKEPKLLMSVYSSGNEDGRFTAQLNRASQYISLLIRDSKLSDSATYLCVVMGYGQNFVFGPGTRLSVLP
Vbeta: GAVVSQHPSWVICKSGTSVKIECRSLDFQATTMFWYRQFPKQSLMLMATSNEGSKATYEQGVEKDKFLINHASLTLSTLTVTSAHPEDSSFYICSAMGRQSTDTQYFGPGTRLTVL
